Measurements: PMC7139386, “Defects in Galactose Metabolism and Glycoconjugate Biosynthesis in a UDP-Glucose Pyrophosphorylase-Deficient Cell Line Are Reversed by Adding Galactose to the Growth Medium” (International Journal of Molecular Sciences, 2020)
Substitutions are numbered along the chain they refer to. In names and notes the source's numbering stands.

B1: HsUGP (Homo sapiens) (protein)
chain: MSRFVQDLSKAMSQDGASQFQEVIRQELELSVKKELEKILTTASSHEFEHTKKDLDGFRKLFHRFLQEKGPSVDWGKIQRPPEDSIQPYEKIKARGLPDNISSVLNKLVVVKLNGGLGTSMGCKGPKSLIGVRNENTFLDLTVQQIEHLNKTYNTDVPLVLMNSFNTDEDTKKILQKYNHCRVKIYTFNQSRYPRINKESLLPVAKDVSYSGENTEAWYPPGHGDIYASFYNSGLLDTFIGEGKEYIFVSNIDNLGATVDLYILNHLMNPPNGKRCEFVMEVTNKTRADVKGGTLTQYEGKLRLVEIAQVPKAHVDEFKSVSKFKIFNTNNLWISLAAVKRLQEQNAIDMEIIVNAKTLDGGLNVIQLETAVGAAIKSFENSLGINVPRSRFLPVKTTSDLLLVMSNLYSLNAGSLTMSEKREFPTVPLVKLGSSFTKVQDYLRRFESIPDMLELDHLTVSGDVTFGKNVSLKGTVIIIANHGDRIDIPPGAVLENKIVSGNLRILDH
notes: octameric
B2: HsUGP (Homo sapiens; G116D) (protein)
chain: B1 chain with G116D
notes: octameric

Assays:
Assay type in all cases: biochemical, Homo sapiens
[1] = substrate: O=c1ccn([C@@H]2O[C@H](COP(=O)(O)OP(=O)(O)OP(=O)(O)O)[C@@H](O)[C@H]2O)c(=O)[nH]1; assay: continuous assay based on PPi detection, forward reaction, Michaelis-Menten fit; settings: UTP varied 0.01-0.8 mM at 2 mM Glc1P
[2] = substrate: O=P(O)(O)O[C@H]1O[C@H](CO)[C@@H](O)[C@H](O)[C@H]1O; assay: as above; settings: Glc1P varied 0.01-1 mM at 1 mM UTP
[3] = substrate: O=P(O)(O)O[C@H]1O[C@H](CO)[C@H](O)[C@H](O)[C@H]1O; assay: continuous assay based on PPi detection, forward reaction, Michaelis-Menten and cooperative fits; settings: Gal1P varied 0.01-2 mM at 1 mM UTP

| Protein | Km [1] [µM] | Km [2] [µM] | Km [3] [µM] |
| --- | --- | --- | --- |
| B1 | 76.29 ± 3.96 | 34.2 ± 1.99 | 842.0 ± 72.8 |
| B2 | 79.50 ± 4.93 | 53.97 ± 4.11 |  |
